Measured values: patent publication US20200377590A1 (Hoffmann-La Roche, published 2020)

T1: CD81 (UniProt P60033 1-236, limits assumed)
T1 construct: whole, on cells; also called CD81 receptor
T1 sequence (looked up): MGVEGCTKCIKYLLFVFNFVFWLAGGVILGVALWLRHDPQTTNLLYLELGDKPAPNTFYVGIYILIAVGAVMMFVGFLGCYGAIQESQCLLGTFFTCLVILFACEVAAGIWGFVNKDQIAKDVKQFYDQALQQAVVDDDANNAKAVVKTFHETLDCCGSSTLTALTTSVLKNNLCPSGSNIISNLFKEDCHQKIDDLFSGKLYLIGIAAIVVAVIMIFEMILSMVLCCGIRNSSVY

B1: CD81K04 HC GG-01-hVH_5_51 / LC GG-03-hVK_4_1 (antibody, V domains shown)
VH: EVQLVQSGAEVKKPGESLKISCKGSGYSFSSSWMNWVRQMPGKGLEWMGRIYSGDGDAIYSPSFQGQVTISADKSISTAYLQLSSLKASDTAMYYCAREGKTGDLLLRSWGQGTLVTVSS
VL: DIVMTQSPDSLAVSLGERATINCKSSKSVSTSIYSYLAWYQQKPGQPPKLLIYYASYRESGVPDRFSGSGSGTDFTLTISSLQAEDVAVYYCQHSREFPFTFGQGTKLEIK
notes: human constant region
B2: CD81K04 HC GG-01-hVH_5_51 / LC GG-05-hVK_3_11 (antibody, V domains shown)
VH: EVQLVQSGAEVKKPGESLKISCKGSGYSFSSSWMNWVRQMPGKGLEWMGRIYSGDGDAIYSPSFQGQVTISADKSISTAYLQLSSLKASDTAMYYCAREGKTGDLLLRSWGQGTLVTVSS
VL: EIVLTQSPATLSLSPGERATLSCRASKSVSTSIYSYLHWYQQKPGQAPRLLIYYASNRETGIPARFSGSGSGTDFTLTISSLEPEDFAVYYCQHSREFPFTFGQGTKLEIK
notes: human constant region
B3: CD81K04 HC GG-01-hVH_5_51 / LC JA_GG-07-hVK_7_3 (antibody, V domains shown)
VH: EVQLVQSGAEVKKPGESLKISCKGSGYSFSSSWMNWVRQMPGKGLEWMGRIYSGDGDAIYSPSFQGQVTISADKSISTAYLQLSSLKASDTAMYYCAREGKTGDLLLRSWGQGTLVTVSS
VL: DIVLTQSPASLAVSPGQRATITCRASKSVSTSIYSYMHWYQQKPGQPPKLLIKYASNKDTGVPARFSGSGSGTDFTLTINPVEANDAANYYCLHSREFPYTFGQGTKLEIK
notes: human constant region
B4: CD81K04 HC GG-01-hVH_5_51 / LC GG-06-hVK_1_39 (antibody, V domains shown)
VH: EVQLVQSGAEVKKPGESLKISCKGSGYSFSSSWMNWVRQMPGKGLEWMGRIYSGDGDAIYSPSFQGQVTISADKSISTAYLQLSSLKASDTAMYYCAREGKTGDLLLRSWGQGTLVTVSS
VL: DIQMTQSPSSLSASVGDRVTITCRASKSVSTSIYSYLNWYQQKPGKAPKLLIYYASYLQSGVPSRFSGSGSGTDFTLTISSLQPEDFATYYCQHSREFPYTFGQGTKLEIK
notes: human constant region
B5: CD81K04 HC GG-05-hVH_1_18 / LC JA_GG-10-hVK_4_1 (antibody, V domains shown)
VH: QVQLVQSGAEVKKPGASVKVSCKASGYTFSSSWMNWVRQAPGQGLEWMGRIYSGDGDAIYAQKLQGRVTMTTDTSTSTAYMELRSLRSDDTAVYYCAREGKTGDLLLRSWGQGTLVTVSS
VL: DIVMTQSPDSLAVSLGERATINCRASKSVSTSIYSYMHWYQQKPGQPPKLLIKYASYLESGVPDRFSGSGSGTDFTLTISSLQAEDVAVYYCEHSREFPFTFGQGTKLEIK
notes: human constant region
B6: CD81K04 HC GG-01-hVH_5_51 / LC GG-04-hVK_4_1 (antibody, V domains shown)
VH: EVQLVQSGAEVKKPGESLKISCKGSGYSFSSSWMNWVRQMPGKGLEWMGRIYSGDGDAIYSPSFQGQVTISADKSISTAYLQLSSLKASDTAMYYCAREGKTGDLLLRSWGQGTLVTVSS
VL: DIVMTQSPDSLAVSLGERATINCKSSKSVSTSIYSYLAWYQQKPGQPPKLLIYYASTRESGVPDRFSGSGSGTDFTLTISSLQAEDVAVYYCQHSREFPYTFGQGTKLEIK
notes: human constant region
B7: CD81K04 HC GG-01-hVH_5_51 / LC JA_GG-08-hVK_4_1 (antibody, V domains shown)
VH: EVQLVQSGAEVKKPGESLKISCKGSGYSFSSSWMNWVRQMPGKGLEWMGRIYSGDGDAIYSPSFQGQVTISADKSISTAYLQLSSLKASDTAMYYCAREGKTGDLLLRSWGQGTLVTVSS
VL: DIVMTQSPDSLAVSLGERATINCKSSKSVSTSIYSYMHWYQQKPGQPPKLLIKYASYLESGVPDRFSGSGSGTDFTLTISSLQAEDVAVYYCEHSREFPFTFGQGTKLEIK
notes: human constant region
B8: CD81K04 HC GG-01-hVH_5_51 / LC JA_GG-10-hVK_4_1 (antibody, V domains shown)
VH: EVQLVQSGAEVKKPGESLKISCKGSGYSFSSSWMNWVRQMPGKGLEWMGRIYSGDGDAIYSPSFQGQVTISADKSISTAYLQLSSLKASDTAMYYCAREGKTGDLLLRSWGQGTLVTVSS
VL: DIVMTQSPDSLAVSLGERATINCRASKSVSTSIYSYMHWYQQKPGQPPKLLIKYASYLESGVPDRFSGSGSGTDFTLTISSLQAEDVAVYYCEHSREFPFTFGQGTKLEIK
notes: human constant region
B9: CD81K04 HC GG-01-hVH_5_51 / LC JA_GG-09-hVK_4_1 (antibody, V domains shown)
VH: EVQLVQSGAEVKKPGESLKISCKGSGYSFSSSWMNWVRQMPGKGLEWMGRIYSGDGDAIYSPSFQGQVTISADKSISTAYLQLSSLKASDTAMYYCAREGKTGDLLLRSWGQGTLVTVSS
VL: DIVMTQSPDSLAVSLGERATINCKSSKSVSTSIYSYMHWYQQKPGQPPKLLIKYASTRESGVPDRFSGSGSGTDFTLTISSLQAEDVAVYYCEHSREFPFTFGQGTKLEIK
notes: human constant region
B10: CD81K13 HC CD81K13 / LC 1c-hVK_3_15 (antibody, V domains shown)
VH: EVRLHQSAAQLVQPGASVRLSCTTSGFNFKDSYLHWVKQRPAQGLEWIGRIDTGNGNVKFDPKFQDKATITTDIPSMTAYLHLSNLTSEDTAVYYCVPYGYGFHSWGDGTTLTVSS
VL: EIVMTQSPATLSVSPGERATLSCRASENIYRTLAWYQQKPGQAPRLLIYGATTLADGIPARFSGSGSGTEFTLTISSLQSEDFGVYYCQHFWGTPWTFGQGTKVEIK
notes: human constant region
B11: CD81K13 HC 01-hVH_1_f / LC 01-hVK_3_15 (antibody, V domains shown)
VH: EVQLVQSGAEVKKPGATVKISCKVSGYTFTDSYMHWVQQAPGKGLEWMGRIDTGNGNVKFDPKFQGRVTITADTSTDTAYMELSSLRSEDTAVYYCAPYGYGFHSWGQGTLVTVSS
VL: EIVMTQSPATLSVSPGERATLSCRASENIYRTLAWYQQKPGQAPRLLIYGATTRATGIPARFSGSGSGTEFTLTISSLQSEDFGVYYCQHFWGTPWTFGQGTKVEIK
notes: human constant region
B12: CD81K13 HC CD81K13 / LC 05-hVK_1_39 (antibody, V domains shown)
VH: EVRLHQSAAQLVQPGASVRLSCTTSGFNFKDSYLHWVKQRPAQGLEWIGRIDTGNGNVKFDPKFQDKATITTDIPSMTAYLHLSNLTSEDTAVYYCVPYGYGFHSWGDGTTLTVSS
VL: DIQMTQSPSSLSASVGDRVTITCRASENIYRTLAWYQQKPGKAPKLLIYAATTLASGVPSRFSGSGSGTDFTLTISSLQPEDFATYYCQHFWGTPWTFGQGTKVEIK
notes: human constant region
B13: CD81K13 HC CD81K13 / LC 03-hVK_1_9 (antibody, V domains shown)
VH: EVRLHQSAAQLVQPGASVRLSCTTSGFNFKDSYLHWVKQRPAQGLEWIGRIDTGNGNVKFDPKFQDKATITTDIPSMTAYLHLSNLTSEDTAVYYCVPYGYGFHSWGDGTTLTVSS
VL: DIQLTQSPSFLSASVGDRVTITCRASENIYRTLAWYQQKPGKAPKLLIYAATTLASGVPSRFSGSGSGTEFTLTISSLQPEDFATYYCQHFWGTPWTFGQGTKVEIK
notes: human constant region
B14: CD81K13 HC CD81K13 / LC 04-hVK_1_9 (antibody, V domains shown)
VH: EVRLHQSAAQLVQPGASVRLSCTTSGFNFKDSYLHWVKQRPAQGLEWIGRIDTGNGNVKFDPKFQDKATITTDIPSMTAYLHLSNLTSEDTAVYYCVPYGYGFHSWGDGTTLTVSS
VL: DIQLTQSPSFLSASVGDRVTITCRASENIYRTLAWYQQKPGKAPKLLIYAATTLASGVPSRFSGSGSGTEFTLTISSLQPEDFGTYYCQHFWGTPWTFGQGTKVEIK
notes: human constant region
B15: CD81K13 HC CD81K13 / LC 01-hVK_3_15 (antibody, V domains shown)
VH: EVRLHQSAAQLVQPGASVRLSCTTSGFNFKDSYLHWVKQRPAQGLEWIGRIDTGNGNVKFDPKFQDKATITTDIPSMTAYLHLSNLTSEDTAVYYCVPYGYGFHSWGDGTTLTVSS
VL: EIVMTQSPATLSVSPGERATLSCRASENIYRTLAWYQQKPGQAPRLLIYGATTRATGIPARFSGSGSGTEFTLTISSLQSEDFGVYYCQHFWGTPWTFGQGTKVEIK
notes: human constant region
B16: CD81K13 HC CD81K13 / LC 07-hVK_1_27 (antibody, V domains shown)
VH: EVRLHQSAAQLVQPGASVRLSCTTSGFNFKDSYLHWVKQRPAQGLEWIGRIDTGNGNVKFDPKFQDKATITTDIPSMTAYLHLSNLTSEDTAVYYCVPYGYGFHSWGDGTTLTVSS
VL: DIQMTQSPSSLSASVGDRVTITCRASENIYRTLAWYQQKPGKVPKLLIYAATTLASGVPSRFSGSGSGTDFTLTISSLQPEDVGTYYCQKFWGTPWTFGQGTKVEIK
notes: human constant region
B17: CD81K13 HC CD81K13 / LC 5b-hVK_1_39 (antibody, V domains shown)
VH: EVRLHQSAAQLVQPGASVRLSCTTSGFNFKDSYLHWVKQRPAQGLEWIGRIDTGNGNVKFDPKFQDKATITTDIPSMTAYLHLSNLTSEDTAVYYCVPYGYGFHSWGDGTTLTVSS
VL: DIQMTQSPSSLSASVGDRVTITCRASENIYRTLAWYQQKPGKAPKLLIYGATTLADGVPSRFSGSGSGTDFTLTISSLQPEDFATYYCQHFWGTPWTFGQGTKVEIK
notes: human constant region
B18: CD81K13 HC CD81K13 / LC 06-hVK_1_39 (antibody, V domains shown)
VH: EVRLHQSAAQLVQPGASVRLSCTTSGFNFKDSYLHWVKQRPAQGLEWIGRIDTGNGNVKFDPKFQDKATITTDIPSMTAYLHLSNLTSEDTAVYYCVPYGYGFHSWGDGTTLTVSS
VL: DIQMTQSPSSLSASVGDRVTITCRASENIYRTLAWYQQKPGKAPKLLIYAATTLASGVPSRFSGSGSGTDFTLTISSLQPEDFGTYYCQHFWGTPWTFGQGTKVEIK
notes: human constant region
B19: CD81K13 HC CD81K13 / LC 1b-hVK_3_15 (antibody, V domains shown)
VH: EVRLHQSAAQLVQPGASVRLSCTTSGFNFKDSYLHWVKQRPAQGLEWIGRIDTGNGNVKFDPKFQDKATITTDIPSMTAYLHLSNLTSEDTAVYYCVPYGYGFHSWGDGTTLTVSS
VL: EIVMTQSPATLSVSPGERATLSCRASENIYRTLAWYQQKPGQAPRLLIYGATTLADGIPARFSGSGSGTEFTLTISSLQSEDFAVYYCQHFWGTPWTFGQGTKVEIK
notes: human constant region
B20: CD81K13 HC CD81K13 / LC 5b-hVK_1_39-GA (antibody, V domains shown)
VH: EVRLHQSAAQLVQPGASVRLSCTTSGFNFKDSYLHWVKQRPAQGLEWIGRIDTGNGNVKFDPKFQDKATITTDIPSMTAYLHLSNLTSEDTAVYYCVPYGYGFHSWGDGTTLTVSS
VL: DIQMTQSPSSLSASVGDRVTITCRASENIYRTLAWYQQKPGKAPKLLIYGATTLADGVPSRFSGSGSGTDFTLTISSLQPEDFATYYCQHFWGTPWTFGQGTKVEIK
notes: human constant region
B21: CD81K13 HC 01-hVH_1_f / LC CD81K13 (antibody, V domains shown)
VH: EVQLVQSGAEVKKPGATVKISCKVSGYTFTDSYMHWVQQAPGKGLEWMGRIDTGNGNVKFDPKFQGRVTITADTSTDTAYMELSSLRSEDTAVYYCAPYGYGFHSWGQGTLVTVSS
VL: DIQMTQSPASLSVSVGETVTITCRASENIYRTLAWYLQKQGKSPQLLVYGATTLADGVPSRFSGSGSGTQYYLKINSLQSEDFGTYHCQHFWGTPWTFGGGTKVEIK
notes: human constant region
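Note: antibody binding to HuH7 cells expressing CD81 versus a CD81-negative HuH7 control line, bound antibody detected by secondary reagent, absorbance at 450 nm with 620 nm reference.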

These binders were tested against T1, CD81 (assay: cell ELISA).
Protocol: For the binding cell ELISA assay, HuH7-Rluc-H3 (positive cell line expressing CD81) and HuH7-Rluc-L1 (negative control cell line) were propagated in F-12 DMEM medium with 10% FCS at 37° C. and 5% CO₂. On day 1, the cells were trypsinized at approximately 90% confluence and resuspended at 4×10⁵ cells/mL. […] On day 2, the antibody samples to be tested were prepared in a separate polypropylene round bottom plate with a twofold desired concentration with a final volume of 120 μl. All of the assay samples were diluted in cell culture medium. […] After fixation, each well was washed 3 times with 200 μL PBS/0.05% Tween. The secondary incubation step for detection of bound anti-CD81 antibodies was performed for 2 h at room temperature on a reciprocal shaker. […] Each well was washed three times with 200 μL PBS/0.05% Tween to remove unbound antibodies. […] The absorbance was read using the ELISA Tecan reader at 450 nm with 620 nm reference wavelength.
For B1, the ELISA data was 0.129. For B2, the ELISA data was 0.073. B3 was tested, and the ELISA data was 0.061. In the case of B4, the ELISA data is reported as 0.089. For B5, the ELISA data was 0.841. B6 showed an ELISA data of 0.186. In the case of B7, the ELISA data is reported as 0.164. B8 showed an ELISA data of 0.064. B9 was tested, and the ELISA data was 0.148.

Biological target: T1, CD81
Test: cell ELISA
Remark: another data set of the same source
With B10 the ELISA data was 0.95. In the case of B11, the ELISA data is reported as 0.527. For B12, the ELISA data was 0.886. For B13, the ELISA data was 0.949. For B14, the ELISA data was 0.851. B15 was tested, and the ELISA data was 1.01. B16 gave an ELISA data of 0.199. In the case of B17, the ELISA data is reported as 0.594. Work on B18 yielded an ELISA data of 0.811. In the case of B19, the ELISA data is reported as 0.86. B20 gave an ELISA data of 0.751. In the case of B21, the ELISA data is reported as 0.272.
